{"source": "patent US20250223354A1", "about": "(BIOTHEUS, published 2025)", "binders": {"B1": {"name": "anti-PVRIG monoclonal antibody ADI-56127 (antibody, V domains shown)", "VH": "QVQLVQSGAEVKKPGSSVKVSCKASGGTESVDAISWVRQAPGQGLEWMGDIIPFFDTDYAQKFQGRVTITADESTSTAYMELSSLRSEDTAVYYCAREGGTSWTHFFDLWGRGTLVTVSS", "VL": "not shown"}}, "key": {"[1]": {"target": "T1, cynomolgus monkey PVRIG-Fc protein (cynomolgus monkey, UniProt Q6DKI7 41-171 (human entry), limits assumed)", "T1 construct": "no signal peptide limits stated; Bivalent antigen; also called Cynomolgus PVRIG-hFc; not shown: human Fc (hFc)", "T1 chain": "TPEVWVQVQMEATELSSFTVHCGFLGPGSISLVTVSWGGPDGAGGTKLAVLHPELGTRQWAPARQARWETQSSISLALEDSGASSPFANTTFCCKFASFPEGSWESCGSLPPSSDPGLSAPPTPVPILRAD", "assay": "BLI (ForteBio), antibody on AHQ sensor, 100 nM Fc antigen, bivalent, 1:1 model", "experimental": "The antibody-loaded sensor was continued to be loaded in a high concentration of irrelevant intact antibody for 10 min, saturating the Fc-binding site on the AHQ sensor. The saturated sensor was incubated in 100 nM target antigen to the plateau phase, and then the sensor was transferred to an analysis buffer and incubated for at least 2 minutes for measuring dissociation rate. The kinetic analysis was performed using a 1:1 binding model."}, "[2]": {"target": "T2, mouse PVRIG overexpressed on CHO cells (mouse, UniProt A0A1B0GS01 1-234)", "T2 construct": "also called CHO-muPVRIG cells", "T2 sequence": "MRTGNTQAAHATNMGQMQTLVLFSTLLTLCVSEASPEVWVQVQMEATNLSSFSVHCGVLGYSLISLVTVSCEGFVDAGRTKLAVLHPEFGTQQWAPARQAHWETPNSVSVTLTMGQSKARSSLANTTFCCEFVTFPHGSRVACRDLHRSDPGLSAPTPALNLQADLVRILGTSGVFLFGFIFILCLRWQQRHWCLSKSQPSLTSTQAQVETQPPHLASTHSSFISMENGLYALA", "assay": "flow cytometry, CHO-muPVRIG cells", "experimental": "(§1) The overexpressing cells were expanded and adjusted to an appropriate cell density, and added to a 96-well flow cytometry plate. After centrifugation, the cells were added with a gradiently diluted sample to be tested, and incubated at 4° C. for 30 minutes. The cells were washed twice with PBS, and added with a fluorescent secondary antibody correspondingly diluted to an appropriate concentration, then incubated at 4° C. for 30 minutes, and washed twice with PBS. Cells were resuspended with PBS, and detected on a CytoFlex flow cytometer, and the corresponding MFI was calculated. Graphpad software was used for graphical analysis to obtain EC₅₀ values."}, "[3]": {"target": "T3, human PVRIG expressed on cells (human, UniProt Q6DKI7 41-326)", "T3 construct": "whole, on cells; cDNA encoding human PVRIG in pCHO1.0 for CHO cells; also called CHO-huPVRIG cells", "T3 sequence (looked up)": "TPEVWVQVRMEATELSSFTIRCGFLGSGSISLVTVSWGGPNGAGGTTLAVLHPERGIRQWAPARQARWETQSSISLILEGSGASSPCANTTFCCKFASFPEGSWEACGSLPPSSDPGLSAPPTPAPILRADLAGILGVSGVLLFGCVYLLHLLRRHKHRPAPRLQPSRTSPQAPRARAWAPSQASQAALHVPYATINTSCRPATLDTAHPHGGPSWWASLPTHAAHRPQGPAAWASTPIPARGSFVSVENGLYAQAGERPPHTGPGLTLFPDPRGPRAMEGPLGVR", "assay": "flow cytometry, CHO-huPVRIG cells", "experimental": "as §1"}, "[4]": {"target": "T4, cynomolgus PVRIG overexpressed on CHO cells (cynomolgus, UniProt A0A2K5WVV8 1-322)", "T4 construct": "whole, on cells; also called CHO-cynoPVRIG cells", "T4 sequence": "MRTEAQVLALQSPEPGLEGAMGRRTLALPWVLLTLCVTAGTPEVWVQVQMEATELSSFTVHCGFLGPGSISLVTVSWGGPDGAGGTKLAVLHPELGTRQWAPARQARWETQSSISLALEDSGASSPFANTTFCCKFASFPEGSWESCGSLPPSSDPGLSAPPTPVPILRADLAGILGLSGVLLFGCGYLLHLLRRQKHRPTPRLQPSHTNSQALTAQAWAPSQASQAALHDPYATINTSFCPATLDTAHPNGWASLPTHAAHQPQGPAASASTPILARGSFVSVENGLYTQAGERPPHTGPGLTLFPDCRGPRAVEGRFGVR", "assay": "flow cytometry, CHO-cynoPVRIG cells", "experimental": "as §1"}, "[5]": {"target": "Biotin-labeled mouse PVRIG protein with Mouse IgG2a Fc tag (mouse)", "assay": "competition ELISA: biotin mouse PVRIG-mouse IgG2a Fc binding to coated mouse CD112-his", "experimental": "The coating solution in the ELISA plate was discarded, and the ELISA plate was washed three times with 1×PBST and was blocked with 5% BSA/PBS at 200 μL/well for 2 hours at room temperature. […] The SA-HRP dilution was discarded, the ELISA plate was washed three times with 1×PBST, ELISA Chromogen Solution was added at 100 μL/well and incubated for 1-3 minutes at room temperature, ELISA stopping solution was added at 50 μL/well and the absorbance values were read at 450 nm."}, "[6]": {"target": "T5, biotin-labeled TIGIT protein (co-binding ELISA) (human, UniProt Q495A1 22-141, biotin-labeled (site not stated))", "T5 construct": "Whole entry named; also called human TIGIT protein", "T5 sequence (looked up)": "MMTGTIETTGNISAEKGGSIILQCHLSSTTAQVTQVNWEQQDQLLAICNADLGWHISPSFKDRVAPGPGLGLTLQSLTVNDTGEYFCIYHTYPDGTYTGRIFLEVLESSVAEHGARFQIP", "assay": "co-binding (sandwich) ELISA: coated human PVRIG protein, antibody titrated, detected with biotin-labeled TIGIT protein 1 ug/mL and SA-HRP, absorbance 450 nm"}, "[7]": {"target": "T6, human PVRIG protein with mouse IgG2a Fc tag (human; mouse, UniProt Q6DKI7 41-171, limits assumed)", "T6 construct": "Whole entry named; not shown: mouse IgG2a Fc tag", "T6 sequence (looked up)": "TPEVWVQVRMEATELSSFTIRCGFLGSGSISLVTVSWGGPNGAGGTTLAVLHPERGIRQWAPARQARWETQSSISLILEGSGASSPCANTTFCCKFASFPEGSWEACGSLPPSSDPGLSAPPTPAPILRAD", "assay": "flow cytometry, competition: human PVRIG-mouse IgG2a Fc (1 ug/mL) binding to CHO-huCD112 cells", "experimental": "Specifically, CHO cells overexpressing human CD112 (CHO-huCD112 cells) were generated by transfection of the pCHO1.0 vector (purchased from Invitrogen) with cDNA encoding human CD112 cloned into the multiple cloning site (MCS), followed by pressure screening. […] APC-conjugated goat anti-mouse IgG antibody diluted 100-fold with PBS was added at 100 μL/well, incubated at 4° C. for 30 minutes and washed twice with PBS. Cells were resuspended with PBS at 100 μL/well, and detected on a CytoFlex flow cytometer, and the corresponding MFI was calculated."}, "human PVRIG-his protein": {"target": "T7, human PVRIG-his protein (human, UniProt Q6DKI7 41-171, limits assumed)", "T7 construct": "not shown: his tag", "T7 sequence": "T6 sequence (looked up)", "assay": "BLI (ForteBio), antibody on AHQ sensor, 100 nM antigen, monovalent, 1:1 model", "experimental": "The antibody-loaded sensor was incubated in 100 nM target antigen to the plateau phase, and then the sensor was transferred to an analysis buffer and incubated for at least 2 minutes for measuring dissociation rate. The kinetic analysis was performed using a 1:1 binding model."}}}
{"binder": "B1", "values": [{"measurement": "Kd", "setting": "[1]", "value": 0.267, "unit": "nM"}, {"measurement": "EC50", "setting": "[2]", "value": 3.35, "unit": "nM"}, {"measurement": "EC50", "setting": "[3]", "value": 2.54, "unit": "nM"}, {"measurement": "EC50", "setting": "[4]", "value": 0.844, "unit": "nM"}, {"measurement": "IC50", "setting": "[5]", "value": 0.261, "unit": "nM"}, {"measurement": "binding result", "setting": "[6]", "value": "no binding (tested: 100 nM)"}, {"measurement": "IC50", "setting": "[7]", "value": 1.06, "unit": "nM"}, {"measurement": "Kd", "setting": "human PVRIG-his protein", "value": 0.144, "unit": "nM"}]}
